# T1: cynomolgus monkey FcγRIIb extracellular domain with C-terminal His-tag (cynomolgus monkey)
# T1 construct: Expressed in FreeStyle 293 cells and purified; also called cyno FcγRIIb; cynoFcγRIIb; not shown: C-terminal His-tag
# T1 chain: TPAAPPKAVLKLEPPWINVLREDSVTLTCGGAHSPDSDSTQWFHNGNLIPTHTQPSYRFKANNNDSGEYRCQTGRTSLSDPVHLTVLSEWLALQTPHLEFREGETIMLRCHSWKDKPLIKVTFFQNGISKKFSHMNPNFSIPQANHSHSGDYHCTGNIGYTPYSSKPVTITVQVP
# T2: cynomolgus monkey FcγRIIa1 extracellular domain with C-terminal His-tag (cynomolgus monkey)
# T2 construct: Expressed in FreeStyle 293 cells and purified; also called cyno FcγRIIa1; cynoFcgRIIa1; not shown: C-terminal His-tag
# T2 chain: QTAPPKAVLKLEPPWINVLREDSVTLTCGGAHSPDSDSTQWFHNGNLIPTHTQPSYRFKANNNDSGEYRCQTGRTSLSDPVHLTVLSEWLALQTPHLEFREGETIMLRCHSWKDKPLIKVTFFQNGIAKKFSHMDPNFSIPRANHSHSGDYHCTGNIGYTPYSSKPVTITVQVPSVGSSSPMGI
# T3: cynomolgus monkey FcγRIIa3 extracellular domain with C-terminal His-tag (cynomolgus monkey)
# T3 construct: Expressed in FreeStyle 293 cells and purified; also called cyno FcγRIIa3; cynoFcgRIIa3; not shown: C-terminal His-tag
# T3 chain: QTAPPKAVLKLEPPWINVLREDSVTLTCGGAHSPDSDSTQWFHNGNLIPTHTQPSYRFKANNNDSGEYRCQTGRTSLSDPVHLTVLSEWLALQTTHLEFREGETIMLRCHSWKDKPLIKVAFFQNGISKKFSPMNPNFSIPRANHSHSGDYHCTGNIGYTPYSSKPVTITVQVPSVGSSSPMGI
# T4: cynomolgus monkey FcγRIIIaS extracellular domain with C-terminal His-tag (cynomolgus monkey, UniProt Q8SPW2 21-206 at identity 1.00))
# T4 construct: Expressed in FreeStyle 293 cells and purified; also called cyno FcγRIIIaS; cynoFcγRIIIaS; not shown: C-terminal His-tag
# T4 chain: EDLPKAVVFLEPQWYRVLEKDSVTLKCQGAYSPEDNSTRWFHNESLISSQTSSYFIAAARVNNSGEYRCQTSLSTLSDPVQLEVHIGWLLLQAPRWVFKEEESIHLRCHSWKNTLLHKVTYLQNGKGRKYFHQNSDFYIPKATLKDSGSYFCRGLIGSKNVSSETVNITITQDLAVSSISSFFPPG
# T5: human FcγRIIaH extracellular domain with C-terminal His-tag (human, UniProt P12318 34-217)
# T5 construct: Expressed in FreeStyle 293 cells and purified; also called human FcγRIIa (type H); FcgRIIaH; not shown: C-terminal His-tag
# T5 sequence: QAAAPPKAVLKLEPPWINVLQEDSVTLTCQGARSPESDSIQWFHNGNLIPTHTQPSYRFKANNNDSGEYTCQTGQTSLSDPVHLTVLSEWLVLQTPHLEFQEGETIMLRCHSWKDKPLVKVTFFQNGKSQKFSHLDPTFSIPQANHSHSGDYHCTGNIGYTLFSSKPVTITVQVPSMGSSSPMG
# T6: human FcγRIIaR extracellular domain with C-terminal His-tag (human, UniProt P12318 34-217)
# T6 construct: Expressed in FreeStyle 293 cells and purified; also called human FcγRIIa (type R); FcgRIIaR; not shown: C-terminal His-tag
# T6 chain: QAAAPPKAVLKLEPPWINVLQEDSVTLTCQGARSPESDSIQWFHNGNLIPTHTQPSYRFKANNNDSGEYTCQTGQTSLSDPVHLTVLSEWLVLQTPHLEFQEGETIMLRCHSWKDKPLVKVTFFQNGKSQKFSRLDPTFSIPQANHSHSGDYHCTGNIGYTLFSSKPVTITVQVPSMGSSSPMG
# T7: human FcγRIIb extracellular domain with C-terminal His-tag (human, UniProt P31994 43-217)
# T7 construct: Expressed in FreeStyle 293 cells and purified; also called humanFcgRIIb; not shown: C-terminal His-tag
# T7 sequence: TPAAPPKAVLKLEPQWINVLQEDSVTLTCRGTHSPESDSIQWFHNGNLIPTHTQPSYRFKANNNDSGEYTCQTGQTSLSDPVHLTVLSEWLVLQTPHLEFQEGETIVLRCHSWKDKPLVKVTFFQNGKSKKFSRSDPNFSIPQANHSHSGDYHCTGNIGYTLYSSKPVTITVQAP
# Key:
# [1] = molecular target: T1, cynomolgus monkey FcγRIIb extracellular …; assay: SPR (Biacore); KD of SG1 divided by KD of the variant for this FcgR;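 further: relative to parent M103205H795-SG1 carrying the SG1 human heavy chain constant region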
# [2] = molecular target: T2, cynomolgus monkey FcγRIIa1 …; assay: SPR (Biacore), antibody captured on chip, FcgR extracellular domain as analyte, 25 C
# Protocol: (§1) The kinetic analysis of interactions between these antibodies and FcγR was carried out using BIACORE® T200 or BIACORE® 4000 (GE Healthcare). HBS-EP+ (GE Healthcare) was used as the running buffer, and the measurement temperature was set to 25° C. A chip produced by immobilizing Protein A. Protein A/G or mouse anti-human IgG kappa light chain (BD Biosciences) onto a Series S Sensor Chip CM4 or CM5 (GE Healthcare) by the amine-coupling method was used. […] After the measurement, the antibody captured on the chip was washed off by allowing reaction with 10 mM glycine-HCl, pH1.5 and 25 mM NaOH so that the chip was regenerated and used repeatedly. The sensorgrams obtained as measurement results were analyzed by the 1:1 Langmuir binding model using the BIACORE® Evaluation Software to calculate the binding rate constant ka (L/mol/s) and dissociation rate constant kd (l/s), and the dissociation constant KD (mol/L) was calculated from these values. […] Regarding such interactions, KD values were calculated using the following 1:1 binding model described in BIACORE® T100 Software Handbook BR1006-48 Edition AE.
# (§2) The resultant variants were expressed using M103202L889-SK1 as light chain and their affinity to human and cynoFcγRs were evaluated (Table 20).
# [3] = molecular target: T3, cynomolgus monkey FcγRIIa3 …; assay: as above
# Protocol: as §1, §2
# [4] = molecular target: T4, cynomolgus monkey FcγRIIIaS …; assay: as above
# Protocol: as §1, §2
# [5] = molecular target: T5, human FcγRIIaH extracellular domain …; assay: as above
# Protocol: as §1, §2
# [6] = molecular target: T6, human FcγRIIaR extracellular domain …; assay: as above
# Protocol: as §1, §2
# [7] = molecular target: T7, human FcγRIIb extracellular domain with …; assay: as above
# Protocol: as §1, §2
# [8] = molecular target: T8, human FcγRIIIaV extracellular domain with C-terminal His-tag (human, UniProt P08637 17-208); assay: as above
# T8 construct: Expressed in FreeStyle 293 cells and purified; also called FcgRIIIaV; not shown: C-terminal His-tag
# Protocol: as §1, §2
# T8 sequence (P08637 17-208 F176V): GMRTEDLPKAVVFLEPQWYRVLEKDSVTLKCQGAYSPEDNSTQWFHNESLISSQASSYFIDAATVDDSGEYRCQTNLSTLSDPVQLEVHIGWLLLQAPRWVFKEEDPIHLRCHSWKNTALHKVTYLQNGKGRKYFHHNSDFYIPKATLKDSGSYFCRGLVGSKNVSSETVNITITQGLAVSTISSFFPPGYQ
Binder,KD fold (SG1 = 1) [1],Kd [2],Kd [3],Kd [4],Kd [5],Kd [6],Kd [7],Kd [8]
"M103205H795-MY172 / M103202L889-SK1 (antibody, human IgG1, kappa, Position 396 variant derived from MY052, expressed with M103202L889-SK1 as light chain) heavy: QVTLKESGPVLVKPTETLTLTCTVSGIDLSHDDISWVRQAPGKGLEWVGIISYAGSTYYASWAKGRLTISKDTSKNQVVLTMTNMDPVDTATYYCARGVPAYSHGGDLWGQGTLVTVSSASTKGPSVFPLAPSSKSTSGGTAALGCLVKDYFPEPVTVSWNSGALTSGVHTFPAVLQSSGLYSLSSVVTVPSSSLGTQTYICNVNHKPSNTKVDKKVEPKSCDKTHTCPPCPAPELLNGPSVFLFPPKPKDTLMISRTPEVTCVVVDVSEEDPEVKFNWYVDGVEVHNAKTKPREEQYNSTYRVVSVLTVLHQDWLNGKEYKCKVSNKALPAPIEKTISKAKGQPREPQVYTLPPSREEMTKNQVSLTCLVKGFYPSDIAVEWESNGQPENNYKTTPGVLDSDGSFFLYSKLTVDKSRWQQGNVFSCSVMHEALHNHYTQKSLSLSP light: DIVMTQSPATLSLSPGERATLSCTSSQSVYHANWLSWFQQKPGQPPKLLIYWASTLAYGVPSRFSGSGSGTDFTLTISSLQPEDAATYYCAGGYGGGRYAFGQGTKVEIKRTVAAPSVFIFPPSDEQLKSGTASVVCLLNNFYPREAKVQWKVDNALQSGNSQESVTEQDSKDSTYSLSSTLTLSKADYEKHKVYACEVTHQGLSSPVTKSFNRGEC",1.5 fold,2700 nM,11000 nM,3300 nM,17000 nM,3100 nM,1800 nM,6500 nM
"M103205H795-MY173 / M103202L889-SK1 (antibody, human IgG1, kappa, Position 396 variant derived from MY052, expressed with M103202L889-SK1 as light chain) heavy: QVTLKESGPVLVKPTETLTLTCTVSGIDLSHDDISWVRQAPGKGLEWVGIISYAGSTYYASWAKGRLTISKDTSKNQVVLTMTNMDPVDTATYYCARGVPAYSHGGDLWGQGTLVTVSSASTKGPSVFPLAPSSKSTSGGTAALGCLVKDYFPEPVTVSWNSGALTSGVHTFPAVLQSSGLYSLSSVVTVPSSSLGTQTYICNVNHKPSNTKVDKKVEPKSCDKTHTCPPCPAPELLNGPSVFLFPPKPKDTLMISRTPEVTCVVVDVSEEDPEVKFNWYVDGVEVHNAKTKPREEQYNSTYRVVSVLTVLHQDWLNGKEYKCKVSNKALPAPIEKTISKAKGQPREPQVYTLPPSREEMTKNQVSLTCLVKGFYPSDIAVEWESNGQPENNYKTTPHVLDSDGSFFLYSKLTVDKSRWQQGNVFSCSVMHEALHNHYTQKSLSLSP light: DIVMTQSPATLSLSPGERATLSCTSSQSVYHANWLSWFQQKPGQPPKLLIYWASTLAYGVPSRFSGSGSGTDFTLTISSLQPEDAATYYCAGGYGGGRYAFGQGTKVEIKRTVAAPSVFIFPPSDEQLKSGTASVVCLLNNFYPREAKVQWKVDNALQSGNSQESVTEQDSKDSTYSLSSTLTLSKADYEKHKVYACEVTHQGLSSPVTKSFNRGEC",2.3 fold,1700 nM,3000 nM,3100 nM,1000 nM,1900 nM,10000 nM,7000 nM

# Stronger by Kd [2], values ahead:
KD fold (SG1 = 1) [1],Kd [2],Kd [3],Kd [4],Kd [5],Kd [6],Kd [7],Kd [8],Binder
2.8 fold,1500 nM,6400 nM,2500 nM,810 nM,1400 nM,850 nM,6800 nM,"M103205H795-MY174 / M103202L889-SK1 (antibody, human IgG1, kappa, Position 396 variant derived from MY052, expressed with M103202L889-SK1 as light chain) heavy: QVTLKESGPVLVKPTETLTLTCTVSGIDLSHDDISWVRQAPGKGLEWVGIISYAGSTYYASWAKGRLTISKDTSKNQVVLTMTNMDPVDTATYYCARGVPAYSHGGDLWGQGTLVTVSSASTKGPSVFPLAPSSKSTSGGTAALGCLVKDYFPEPVTVSWNSGALTSGVHTFPAVLQSSGLYSLSSVVTVPSSSLGTQTYICNVNHKPSNTKVDKKVEPKSCDKTHTCPPCPAPELLNGPSVFLFPPKPKDTLMISRTPEVTCVVVDVSEEDPEVKFNWYVDGVEVHNAKTKPREEQYNSTYRVVSVLTVLHQDWLNGKEYKCKVSNKALPAPIEKTISKAKGQPREPQVYTLPPSREEMTKNQVSLTCLVKGFYPSDIAVEWESNGQPENNYKTTPIVLDSDGSFFLYSKLTVDKSRWQQGNVFSCSVMHEALHNHYTQKSLSLSP light: DIVMTQSPATLSLSPGERATLSCTSSQSVYHANWLSWFQQKPGQPPKLLIYWASTLAYGVPSRFSGSGSGTDFTLTISSLQPEDAATYYCAGGYGGGRYAFGQGTKVEIKRTVAAPSVFIFPPSDEQLKSGTASVVCLLNNFYPREAKVQWKVDNALQSGNSQESVTEQDSKDSTYSLSSTLTLSKADYEKHKVYACEVTHQGLSSPVTKSFNRGEC"
2.5 fold,1400 nM,7500 nM,2600 nM,860 nM,1800 nM,830 nM,7600 nM,"M103205H795-MY175 / M103202L889-SK1 (antibody, human IgG1, kappa, Position 396 variant derived from MY052, expressed with M103202L889-SK1 as light chain) heavy: QVTLKESGPVLVKPTETLTLTCTVSGIDLSHDDISWVRQAPGKGLEWVGIISYAGSTYYASWAKGRLTISKDTSKNQVVLTMTNMDPVDTATYYCARGVPAYSHGGDLWGQGTLVTVSSASTKGPSVFPLAPSSKSTSGGTAALGCLVKDYFPEPVTVSWNSGALTSGVHTFPAVLQSSGLYSLSSVVTVPSSSLGTQTYICNVNHKPSNTKVDKKVEPKSCDKTHTCPPCPAPELLNGPSVFLFPPKPKDTLMISRTPEVTCVVVDVSEEDPEVKFNWYVDGVEVHNAKTKPREEQYNSTYRVVSVLTVLHQDWLNGKEYKCKVSNKALPAPIEKTISKAKGQPREPQVYTLPPSREEMTKNQVSLTCLVKGFYPSDIAVEWESNGQPENNYKTTPKVLDSDGSFFLYSKLTVDKSRWQQGNVFSCSVMHEALHNHYTQKSLSLSP light: DIVMTQSPATLSLSPGERATLSCTSSQSVYHANWLSWFQQKPGQPPKLLIYWASTLAYGVPSRFSGSGSGTDFTLTISSLQPEDAATYYCAGGYGGGRYAFGQGTKVEIKRTVAAPSVFIFPPSDEQLKSGTASVVCLLNNFYPREAKVQWKVDNALQSGNSQESVTEQDSKDSTYSLSSTLTLSKADYEKHKVYACEVTHQGLSSPVTKSFNRGEC"

# From US20200317768A1 (published 2020)
